Data on five molecules can be found in patent US20240034783A1.

The target of the experiment is CLDN18.2 expressed in mouse healthy stomach tissue (mouse) (UniProt P56857). Put plainly: flow cytometry, live cells from healthy mouse stomach, antibody 4 µg/ml.

B1: hCl1a (antibody, human IgG1, kappa, V domains shown)
VH: QVQLVQSGAEVKKPGASVKVSCKASGYTFTDYAMHWVRQAPGQRLEWMGWINTYTGKPTYAQKFQGRVTITRDTSASTAYMELSSLRSEDTAVYYCARAVFYGYTMDAWGQGTLVTVSS
VL: DIQMTQSPSSLSASVGDRVTITCRASEDIYSNLAWYQQKPGKAPKLLIFSVKRLQDGVPSRFSGSGSGTDFTLTISSLQPEDFATYYCLQGSNFPLTFGQGTKVEIKR
B1 displayed a % of positive healthy stomach cells (Average) of 0.75%, a % of positive healthy stomach cells (Mouse 1) of 1.2% and a % of positive healthy stomach cells (Mouse 2) of 0.3%.

B2: hCl1c (antibody, human IgG1, kappa, V domains shown)
VH: QVQLVQSGAEVKKPGASVKVSCKASGYTFTDYAMHWVRQAPGQRLEWMGWINTYTGKPTYSQKFQGRVTITRDTSASTAYMELSSLRSEDTAVYYCARAVFYGYTMDAWGQGTLVTVSS
VL: DIQMTQSPSSLSASVGDRVTITCRTSEDIYSNLAWYQQKPGKAPKLLIFAIKRLQDGVPSRFSGSGSGTDFTLTISSLQPEDFATYYCLQGSKFPLTFGQGTKVEIKR
B2: the % of positive healthy stomach cells (Average) is 0.25%, the % of positive healthy stomach cells (Mouse 1) stood at 0.1% and the % of positive healthy stomach cells (Mouse 2) amounted to 0.4%.

B3: hCl1b (antibody, human IgG1, kappa, V domains shown)
VH: QVQLVQSGAEVKKPGASVKVSCKASGYTFTDYAMHWVRQAPGQRLEWMGWINTYTGKPTYSQKFQGRVTITRDTSASTAYMELSSLRSEDTAVYYCARAVFYGYTMDAWGQGTLVTVSS
VL: DIQMTQSPSSLSASVGDRVTITCRASEDIYSNLAWYQQKPGKAPKLLIFSVKRLQDGVPSRFSGSGSGTDFTLTISSLQPEDFATYYCLQGSNFPLTFGQGTKVEIKR
B3 displayed a % of positive healthy stomach cells (Average) of 0.565%, a % of positive healthy stomach cells (Mouse 1) of 1% and a % of positive healthy stomach cells (Mouse 2) of 0.13%.

B4: hCl1f (antibody, human IgG1, kappa, V domains shown)
VH: QVQLVQSGAEVKKPGASVKVSCKASGYTFTDYAMHWVRQAPGQRLEWMGWINAYTGKPTYAQKFQGRVTITRDTSASTAYMELSSLRSEDTAVYYCARAVFYGYTMDAWGQGTLVTVSS
VL: DIQMTQSPSSLSASVGDRVTITCRASEDIYSNLAWYQQKPGKAPKLLIYSVKRLQDGVPSRFSGSGSGTDFTLTISSLQPEDFATYYCLQGSNFPLTFGQGTKVEIKR
B4 had a % of positive healthy stomach cells (Average) of 0.07%, a % of positive healthy stomach cells (Mouse 1) of 0.04% and a % of positive healthy stomach cells (Mouse 2) of 0.1%.

B5: cCl1-1 (antibody, V domains shown)
VH: QIQLVQSGPELKKPGESVKISCKASGYTFTDYAMHWVKQAPGKGLKWMGWINTYTGKPTYADDFKGRFVFSLEASASTANLQISNLKNEDTATYFCARAVFYGYTMDAWGQGTSVTVSS
VL: DIQMTQSPASLSASLGETISIACRASEDIYSNLAWYQQKSGKSPQLLIFSVKRLQDGVPSRFSGSGSGTQYSLKISGMQPEDEGDYFCLQGSNFPLTFGSGTKLEIK
Regarding B5, the % of positive healthy stomach cells (Average) was found to be 0.35%, the % of positive healthy stomach cells (Mouse 1) was 0.4% and the % of positive healthy stomach cells (Mouse 2) was determined as 0.3%.
